Values of other authors as cited in article PMC8363833.
pKd: −log10 of the molar value.

Tests used:
[1] = biological target: TEM1 beta-lactamase (Escherichia coli) (UniProt P62593)
[2] = biological target: PC1 beta-lactamase (Staphylococcus aureus) (UniProt P00807)
Chain of UniProt P00807 (P00807 25-281): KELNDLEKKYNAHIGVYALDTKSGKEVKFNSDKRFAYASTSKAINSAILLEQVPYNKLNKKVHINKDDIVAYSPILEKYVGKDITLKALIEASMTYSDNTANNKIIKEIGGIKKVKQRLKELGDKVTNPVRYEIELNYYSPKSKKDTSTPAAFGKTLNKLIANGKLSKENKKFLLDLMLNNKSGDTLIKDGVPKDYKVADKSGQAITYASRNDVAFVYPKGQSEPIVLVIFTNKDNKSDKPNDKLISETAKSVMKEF

Chain of UniProt P62593 (P62593 24-286): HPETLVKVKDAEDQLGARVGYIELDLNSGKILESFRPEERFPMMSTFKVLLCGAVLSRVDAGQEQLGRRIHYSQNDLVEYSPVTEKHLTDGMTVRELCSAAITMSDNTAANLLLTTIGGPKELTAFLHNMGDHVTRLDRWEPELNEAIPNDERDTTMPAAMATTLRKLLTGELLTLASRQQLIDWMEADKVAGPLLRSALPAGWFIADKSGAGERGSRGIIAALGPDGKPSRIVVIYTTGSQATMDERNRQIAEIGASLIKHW

For BLIP (from UniProt P35804), the pKd [1] is listed as 8.89 and the pKd [2] is listed as 6.42.
